Numbering of substitutions follows the chain as printed. Names may count otherwise.
B1: BamHI G91S: BamHI restriction enzyme with mutation G91S (protein, UniProt P23940 1-213, looked up, variant G91S)
Type II restriction enzyme …: MEVEKEFITDEAKELLSKDKLIQQAYNEVKTSICSPIWPATSKTFTINNTEKNCNGVVPIKELCYTLLEDTYNWYREKPLDILKLEKKKGSPIDVYKEFIENSELKRVGMEFETGNISSAHRSMNKLLLGLKHGEIDLAIILMPIKQLAYYLTDRVTNFEELEPYFELTEGQPFIFIGFNAEAYNSNVPLIPKGSDGMSKRSIKKWKDKVENK
B2: Eco57I D78N: Eco57I restriction enzyme with mutation D78N (protein, UniProt P25239 1-998, looked up, variant D78N)
Type II restriction enzyme …: MNKKDQLQRLIDKYKSDIDYYRSARYNETQLRTDFLDQLFLILGWDITNAAGKPTNEREVLVEEGLKARAGENTKKPNYTFRLFSERKFFLEAKKPSVDISTTIEPALQVRRYGFTAKLKISVLSNFEYTAIYDCSNQVKETDSVANSRIKLYHFTELVDKFDEINNLIGRESVYTGHFDNEWSEIENKILRFSVDDLFLKQINDWRLLLANEFLQIKNELPEEKLNDLVQNYINSIVFLRVCEDRDLEEYETLYHFAQDKDFQSLVKKLKSSDKKYNSGLFSLEYIDELLSNANSCIWSIIEQLYFPQSTYSFSVFSSDILGNIYEIFLSEKVRIDELGNVKIQPKEEHIDRDVVTTPTHIVKEIIRNTVVEYCKGKSDIEILNSKFADIACGSGAFIIEAFQFIQDILIDYYIQNDKSKLQQISEHTYKLKFEVKREILCKCIYGIDKDYNATKACTFGLLLKLLEGETTETIGKDTPILPALDTNILFGNSLIDSGDKVKQEDIFSINPFDLTNYQFDVIVGNPPYMATEHMNQLTPKELDIYKRKYKSAYKQFDKYFLFIERSIQILKEYGYLGYILPSRFIKVDAGKKLRKFLSENKYLSKLISFGSHQVFKNKTTYTCLLFLNKENHDNFSFYEVKDFKKWLTREDKYLLSSTYQTSSLDSDTWVLEKKINDILKLMFSKSEQLGNIVGKSNVANGIQTSANKYYIHKEIKSENGFIYFEYDGIEYHIEKELTRPYFETNRSGDDSFYTYKDVEPNSFVVYPYKKVGERIQFIEYDELKRQYPKLFEFLQVVKVHLNDKKRSIKPDPTGPNEWYRYGRSQALENCDVDQKLIVGILSNGYKYSIDNHRTFVSSGGTAGYSIINIPNNVRYSIYYIQAILTSKYLEWFASIYGDIFRGRFVARGTKVQTRMPIPTIDFDDPKQKEIHDTISSKQQYLNKLYSQTQKSADRDKIIFERQFEQEKIQMDYLIKNLFDLGDLDSEIPTVEDLYKNL
B3: Eco57I E92Q: Eco57I restriction enzyme with mutation E92Q (protein, UniProt P25239 1-998, looked up, variant E92Q)
Type II restriction enzyme …: B2 Type II restriction enzyme … with N78D, E92Q
B4: BsoBI D212V: BsoBI restriction enzyme with mutation D212V (protein, UniProt P70985 2-323, looked up, variant D212V)
Type II restriction enzyme …: NTQKPFENHLKSVDDLKTTYEEYRAGFIAFALEKNKRSTPYIERARALKVAASVAKTPKDLLYLEDIQDALLYASGISDKAKKFLTEDDKKESINNLIENFLEPAGEEFIDELIFRYLLFQGDSLGGTMRNIAGALAQQKLTRAIISALDIANIPYKWLDSRDKKYTNWMDKPEDDYELETFAKGISWTINGKHRTLMYNITVPLVKKNVVICLFNCEPEIYTPQKVHQQPEKYLLLGELKGGIDPAGADEHWKTANTALTRIRNKFSEKGLSPKTIFIGAAIEHSMAEEIWDQLQSGSLTNSANLTKTEQVGSLCRWIINI
B5: BsoBI E252K: BsoBI restriction enzyme with mutation E252K (protein, UniProt P70985 2-323, looked up, variant E252K)
Type II restriction enzyme …: B4 Type II restriction enzyme … with V211D, E251K
B6: BsoBI D246G: BsoBI restriction enzyme with mutation D246G (protein, UniProt P70985 2-323, looked up, variant D246G)
Type II restriction enzyme …: B4 Type II restriction enzyme … with V211D, D245G
B7: EcoRV Q69E: EcoRV restriction enzyme with mutation Q69E (protein, UniProt P04390 2-245, looked up, variant Q69E)
Type II restriction enzyme …: SLRSDLINALYDENQKYDVCGIISAEGKIYPLGSDTKVLSTIFELFSRPIINKIAEKHGYIVEEPKQENHYPDFTLYKPSEPNKKIAIDIKTTYTNKENEKIKFTLGGYTSFIRNNTKNIVYPFDQYIAHWIIGYVYTRVATRKSSLKTYNINELNEIPKPYKGVKVFLQDKWVIAGDLAGSGNTTNIGSIHAHYKDFVEGKGIFDSEDEFLDYWRNYERTSQLRNDKYNNISEYRNWIYRGRK
B8: EcoRV N70D: EcoRV restriction enzyme with mutation N70D (protein, UniProt P04390 2-245, looked up, variant N70D)
Type II restriction enzyme …: B7 Type II restriction enzyme … with E68Q, N69D

Test system: nucleic acid recognition or cleavage site
Assay: not given
Conditions: mutant restriction enzyme relative to wild type; cited from earlier work
For B1, the “% of WT cleavage activity” value is given as 1%.
For B2, the “% of WT cleavage activity” value is listed as under 0.1%.
For B3, the “% of WT cleavage activity” value is listed as under 0.1%.
For B4, the “% of WT cleavage activity” value is given as under 0.1%.
In the case of B5, the “% of WT cleavage activity” value is listed as under 0.1%.
For B6, the “% of WT cleavage activity” value is listed as under 0.1%.
For B7, the “% of WT cleavage activity” value is listed as under 0.1%.
For B8, the “% of WT cleavage activity” value is listed as 0%.

Test system: sera binding to N6 mA coated ELISA plates
Assay: Competitive ELISA of antisera on N6 mA-BSA coated wells
Design: species or system mice
Conditions: 100 ng of competitor
Description: Competitive ELISA were performed as previously described. Itoh, K., M. Mizugaki, and N. Ishida, Preparation of a monoclonal antibody specific for 1-methyladenosine and its application for the detection of elevated levels of 1-methyladenosine in urines from cancer patients. Jpn J Cancer Res, 1988. 79(10): p. 1130-8. Wells were coated with the N6 mA-BSA conjugate ensuring that binding activity was not directed against the KLH component of the immunogen. Specificity was determined by incubating the antisera with either N6-Methyl-2-deoxyadenosine (specific inhibitor for the desired activity) or 2-Deoxyadenosine 5-monophosphate and adding it to the coated well. When antisera bound to the coated well, no competition was present.
For `CNc1ncnc2c1ncn2[C@H]1C[C@H](O)[C@@H](CO)O1` [N6 mA, N6-Methyl-2-deoxyadenosine], the “inhibition of sera binding to N6 mA coated ELISA plates” value was 50%.
